Data published in patent US20030064396A1 (published 2003).

Columns and labels:
[1] = biological target: human AR fragment coding for the amino acids 325 to 919 (AR2) (human) (UniProt P10275); assay: cell-based or functional assay
[2] = biological target: T1, human androgen receptor, complete (expression vector pSG5AR) (human, UniProt P10275 1-920, 35S-methionine-labeled in the pull-down of Example 4 (in vitro translated, T7 TNT reticulocyte lysate)); assay: mammal hybrid test, VP16 fusion, luciferase reporter in PC3 cells
T1 construct: mature; also called complete AR; 35S-methionine-labeled androgen receptor
T1 sequence (looked up): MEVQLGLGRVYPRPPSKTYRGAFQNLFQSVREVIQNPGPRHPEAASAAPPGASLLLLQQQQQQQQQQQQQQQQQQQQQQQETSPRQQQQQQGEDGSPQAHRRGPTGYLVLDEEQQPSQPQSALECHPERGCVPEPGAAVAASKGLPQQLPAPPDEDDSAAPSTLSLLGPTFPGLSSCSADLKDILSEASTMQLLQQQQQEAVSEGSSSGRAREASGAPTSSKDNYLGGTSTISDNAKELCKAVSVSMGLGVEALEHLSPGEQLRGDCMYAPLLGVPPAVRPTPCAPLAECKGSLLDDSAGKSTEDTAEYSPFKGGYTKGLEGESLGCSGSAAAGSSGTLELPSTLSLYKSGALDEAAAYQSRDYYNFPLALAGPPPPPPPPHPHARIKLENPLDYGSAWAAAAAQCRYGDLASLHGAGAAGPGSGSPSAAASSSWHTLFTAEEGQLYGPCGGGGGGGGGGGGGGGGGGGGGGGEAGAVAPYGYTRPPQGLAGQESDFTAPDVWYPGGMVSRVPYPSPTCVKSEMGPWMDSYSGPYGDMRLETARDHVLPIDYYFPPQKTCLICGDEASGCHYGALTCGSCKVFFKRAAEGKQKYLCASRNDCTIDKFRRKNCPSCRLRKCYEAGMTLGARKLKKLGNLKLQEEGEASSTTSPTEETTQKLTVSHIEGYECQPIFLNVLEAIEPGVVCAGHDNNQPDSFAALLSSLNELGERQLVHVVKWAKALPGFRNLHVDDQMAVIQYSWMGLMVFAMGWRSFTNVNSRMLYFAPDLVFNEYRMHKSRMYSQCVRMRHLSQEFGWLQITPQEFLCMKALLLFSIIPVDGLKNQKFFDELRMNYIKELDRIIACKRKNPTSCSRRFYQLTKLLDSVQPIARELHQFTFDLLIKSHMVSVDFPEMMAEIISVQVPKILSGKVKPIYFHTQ

[3] = biological target: T1, human androgen receptor, complete …; assay: GST pull-down of 35S-labelled AR; binding ratio against GST-empty, corrected for the protein amounts by Western blot, Exp. 1
Description: (§1) A GST pull-down experiment is characterized by an experimental procedure, which allows binding of an in vitro expressed GST fusion protein to a similar in vitro expressed and radioactively labeled protein, subsequent separation from non-interacting proteins and detection and identification of the bound protein as a measure of the binding.

[4] = biological target: T1, human androgen receptor, complete …; assay: GST pull-down of 35S-labelled AR; binding ratio against GST-empty, corrected for the protein amounts by Western blot, Exp. 2
Description: as §1

[5] = biological target: T1, human androgen receptor, complete …; assay: GST pull-down of 35S-labelled AR; binding ratio against GST-empty, corrected for the protein amounts by Western blot, Exp. 4
Description: as §1

[6] = biological target: T1, human androgen receptor, complete …; assay: GST pull-down of 35S-labelled AR; binding ratio against GST-empty, corrected for the protein amounts by Western blot, Exp. 3
Description: as §1

Question: Which yeast-2-hybrid screen with and without 10^-6 mol DHT; lacZ-positive clones (β-galactosidase assay) [1] does the source give for “two-hybrid clone with an insert comprising 327 base pairs coding for part of the ORF of KIAA1380 (ARAP3) (from UniProt Q15652 1915-2023)” here?
Answer: The yeast-2-hybrid screen with and without 10^-6 mol DHT; lacZ-positive clones (β-galactosidase assay) was 40 times.

B1: ARAP3 fragment (AS 1430-1539 of Seq. ID No. 20) as fusion protein with VP16 (CMX-VP16-ARAP3-III) (other)
chain: DLLDAMHTLREKYGIKSHCHCTNKQNLQVGNFPTMNGVSQVLQNVLNHSNKISLCMPESQQQNTPPKSEKNGGSSPESDVGTDNKLTPPESQSPLHWLADLAEQKAREEK
notes: Expressed in transfected human PC3 cells; also called ID No. 20; not shown: VP16 fusion partner from the vector CMX-VP16
Question: Does B1 bind [2]?
Answer: Result: binds

B2: GST-ARAP3: ARAP3 fragment (AS 1735 to 1840 of Seq. ID No. 14) as a GST fusion protein (vector pGEX-KG) (other)
chain: LDAMHTLREKYGIKSHCHCTNKQNLQVGNFPTMNGVSQVLQNVLNHSNKISLCMPESQQQNTPPKSEKNGGSSPESDVGTDNKLTPPESQSPLHWLADLAEQKARE
notes: also called ARAP3 fusion protein; GST-ARAP3 spherical particles; not shown: glutathione S-transferase (GST) tag of the vector pGEX-KG (Pharmacia)
Question: How did the “Ratio GST-ARAP3/GST-empty” value [3] turn out when B2 was run?
Answer: Its value is 26.5 Ratio.

Question: And the “Ratio GST-ARAP3/GST-empty” value [4]?
Answer: Its value is 1120 Ratio.

Question: And the “Ratio GST-ARAP3/GST-empty” value [5]?
Answer: The value was > 100 Ratio.

Question: And the “Ratio GST-ARAP3/GST-empty” value [6]?
Answer: The value was > 100 Ratio.
